These results are taken from article PMC10841013.

For this data set, the target named is T1, rArgR (Streptococcus suis CZ130302) (UniProt Q3C167).
T1 sequence: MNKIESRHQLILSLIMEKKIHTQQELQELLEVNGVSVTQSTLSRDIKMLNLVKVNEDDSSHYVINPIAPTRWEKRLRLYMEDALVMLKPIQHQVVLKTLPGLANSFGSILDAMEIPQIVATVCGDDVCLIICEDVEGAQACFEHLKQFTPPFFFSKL
Briefly: EMSA. For orientation: A gel shift assay detects complexes by their altered migration in electrophoresis.

On to “TGGATGGTTTGACATGATCTGTCCTCCTTGTAGATTTATACATGATGGGAAACGAGGAGGACCGTACGCTTTCCTGCCTCTCATTTCCTCTTTACATCCATAGTTTAACAGAGCAAAAAAACAAAAACTTGAAAACGCTCGCATTTATGTTGAGAAATTCTTCACATTTTCAACCTTATTTATAAATAATTATCGATTATATCGCCTATATTATGCATAATTCTTTCTATTATATCATTATGTGAATTTT (double strand) [arcA promoter 250 bp]”, for which the binding entry is recorded as “binds”.
